Assay results as given in US20180362625A1 (COMMONWEALTH SCIENTIFIC AND INDUSTRIAL RESEARCH ORGANISATION, published 2018).

Molecular target: T1, interferon response factor 3 (IRF3), endogenous in HeLa cells (human, UniProt Q14653 1-427)
T1 construct: Phosphorylation state after poly(I:C) was not defined for the immunoprecipitated material
T1 sequence (looked up): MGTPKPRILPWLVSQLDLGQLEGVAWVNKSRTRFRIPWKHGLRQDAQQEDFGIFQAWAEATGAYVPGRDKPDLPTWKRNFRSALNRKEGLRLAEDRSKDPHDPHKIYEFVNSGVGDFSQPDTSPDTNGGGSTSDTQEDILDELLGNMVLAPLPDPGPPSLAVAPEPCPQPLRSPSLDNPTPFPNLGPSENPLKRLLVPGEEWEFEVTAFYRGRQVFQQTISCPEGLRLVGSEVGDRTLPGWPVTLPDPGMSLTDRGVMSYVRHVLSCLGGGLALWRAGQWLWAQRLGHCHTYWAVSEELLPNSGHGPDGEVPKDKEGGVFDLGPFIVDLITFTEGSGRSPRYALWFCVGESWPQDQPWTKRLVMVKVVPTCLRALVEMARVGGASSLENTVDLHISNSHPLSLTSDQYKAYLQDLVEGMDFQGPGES
Experiment: co-immunoprecipitation from HeLa lysates with immobilised anti-IRF3 antibody, western blot, -/+ poly(I:C)
Method: Immunoprecipitation and cell fractionation: For immunoprecipitation, 25 μg of antibody was coupled to 50 μg of agarose beads using the Pierce direct immunoprecipitation kit as specified by the manufacturers (Life Technologies). Cells were lysed in NP-40 lysis buffer provided and pre-cleared with a non-specific isotype agarose control at 4° C. for 1 hour, then incubated with ˜1.5 μg agarose-coupled antibody at 4° C. overnight. Resin was washed multiple times then elution performed using non-reducing sample buffer (containing 2% w/v SDS) at 100° C. for 10 mins. Cytosolic and nuclear fractions were prepared from cells using the Pierce NE-PER cell fractionation kit (Life Technologies) as specified by the manufacturers, and total protein quantitated by BCA assay (Life Technologies) before western blot analyses.
To access whether C6orf106 binds IRF3, C6orf106-flag was co-expressed with GFP −/+ poly(I:C) as described above, then performed a direct co-immunoprecipitation with immobilised IRF3 antibodies. As shown in FIG. 10A C6orf106 could be detected in IRF3-immunoprecipitated lysates, and this was increased approximately four-fold in the presence of poly(I:C). […] Cells were lysed and subjected to […] immunoprecipitation with an anti-IRF3 antibody. IP samples and input controls were probed with anti-FLAG antibody for western blotting. […]

fold increase of C6orf106 co-immunoprecipitated with IRF3 in the presence of poly(I:C) versus without: ~4 fold
B1: Flag-tagged C6orf106 (C6orf106-FLAG, expressed from pCAGGs-C6-FLAG) (other)
chain: MEGMDVDLDPELMQKFSCLGTTDKDVLISEFQRLLGFQLNPAGCAFFLDMTNWNLQAAIGAYYDFESPNISVPSMSFVEDVTIGEGESIPPDTQFVKTWRIQNSGAEAWPPGVCLKYVGGDQFGHVNMVMVRSLEPQEIADVSVQMCSPSRAGMYQGQWRMCTATGLYYGDVIWVILSVEVGGLLGVTQQLSSFETEFNTQPHRKVEGNFNPFASPQKNRQSDENNLKDPGGSEFDSISKNTWAPAPDTWAPAPDQTEQDQNRLSQNSVNLSPSSHANNLSVVTYSKGLHGPYPFGQSGDYKDDDDK
notes: Over-expressed in HeLa or HEK293T cells and tested in cell lysates by co-immunoprecipitation
